# Test results from patent publication US20240124881.
# Molecular target: T1, DHX36 (Mus musculus) (UniProt Q8VHK9)
# T1 sequence: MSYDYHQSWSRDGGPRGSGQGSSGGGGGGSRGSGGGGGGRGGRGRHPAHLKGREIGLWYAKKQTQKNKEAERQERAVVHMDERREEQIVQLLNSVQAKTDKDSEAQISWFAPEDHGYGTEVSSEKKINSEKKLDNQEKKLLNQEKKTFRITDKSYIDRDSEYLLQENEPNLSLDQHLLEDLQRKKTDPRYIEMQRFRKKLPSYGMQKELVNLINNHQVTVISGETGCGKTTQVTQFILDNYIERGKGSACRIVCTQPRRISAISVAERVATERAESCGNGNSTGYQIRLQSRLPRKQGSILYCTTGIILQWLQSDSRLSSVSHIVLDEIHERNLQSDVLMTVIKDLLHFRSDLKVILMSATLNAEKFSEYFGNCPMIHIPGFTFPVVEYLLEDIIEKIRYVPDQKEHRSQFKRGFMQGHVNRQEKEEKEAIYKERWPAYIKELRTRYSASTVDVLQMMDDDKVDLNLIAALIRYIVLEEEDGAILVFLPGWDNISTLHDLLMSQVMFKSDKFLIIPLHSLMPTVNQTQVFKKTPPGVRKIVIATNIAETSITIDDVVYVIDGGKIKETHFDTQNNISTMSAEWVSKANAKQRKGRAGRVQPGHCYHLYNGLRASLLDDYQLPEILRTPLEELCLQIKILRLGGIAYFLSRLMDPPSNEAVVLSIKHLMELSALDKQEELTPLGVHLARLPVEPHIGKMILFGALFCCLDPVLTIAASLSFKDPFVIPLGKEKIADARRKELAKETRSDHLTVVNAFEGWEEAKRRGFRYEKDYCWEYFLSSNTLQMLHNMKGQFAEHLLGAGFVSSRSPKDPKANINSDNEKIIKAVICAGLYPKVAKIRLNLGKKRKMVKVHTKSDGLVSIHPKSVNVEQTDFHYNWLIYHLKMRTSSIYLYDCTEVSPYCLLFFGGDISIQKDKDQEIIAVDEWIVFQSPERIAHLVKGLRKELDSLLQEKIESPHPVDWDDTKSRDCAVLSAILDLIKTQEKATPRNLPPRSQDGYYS
# Test: pulldown
# Details: N2a lysate, mass spectrometry; threshold criterion
substance,measurement,value
Chaserr Exon5-MC,binding signal (fold lower recovery than WT),> 2
